T1: EhPHDK (PH domain containing protein kinase), full-length recombinant protein (E. histolytica, UniProt C4M4G9 1-433)
T1 sequence (looked up): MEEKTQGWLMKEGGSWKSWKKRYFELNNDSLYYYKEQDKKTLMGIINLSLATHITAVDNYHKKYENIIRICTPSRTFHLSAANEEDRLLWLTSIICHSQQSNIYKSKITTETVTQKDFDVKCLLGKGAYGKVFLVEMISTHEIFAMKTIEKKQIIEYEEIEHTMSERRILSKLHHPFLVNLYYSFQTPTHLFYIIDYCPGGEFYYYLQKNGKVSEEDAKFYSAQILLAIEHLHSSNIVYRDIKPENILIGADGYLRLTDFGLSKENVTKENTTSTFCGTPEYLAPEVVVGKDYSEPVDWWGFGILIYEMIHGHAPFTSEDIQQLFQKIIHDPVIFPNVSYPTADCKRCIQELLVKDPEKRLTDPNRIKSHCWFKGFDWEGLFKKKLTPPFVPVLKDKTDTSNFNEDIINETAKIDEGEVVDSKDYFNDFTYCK

B1: EhCaBP1 (calcium binding protein 1), recombinant (natural protein, E. histolytica, UniProt P38505 1-134, looked up)
chain: MAEALFKEIDVNGDGAVSYEEVKAFVSKKRAIKNEQLLQLIFKSIDADGNGEIDQNEFAKFYGSIQGQDLSDDKIGLKVLYKLMDVDGDGKLTKEEVTSFFKKHGIEKVAEQVMKADANGDGYITLEEFLEFSL

The target of assay [1] is B1. Nature of the assay: BLI. On the technique in general: In BLI a coated tip is dipped into the sample, and binding shifts an interference pattern.
For assay [2], the target named is T1, EhPHDK (PH domain containing protein …). Nature of the assay: BLI.

As a reminder, the Kd is the constant that tells how readily two partners part at equilibrium.

Regarding IYKSKITTETVTQKD [EhPHDK Peptide 2 (hinge region, IQ motif-like sequence)], the Kd in assay [1] was found to be 243 µM.
On to B1, for which the Kd in assay [2] amounted to 32 µM.

The values are drawn from publication doi:10.1101/2025.10.24.684426 (bioRxiv, 2025).
